Laboratory results reported in patent US20240279618A1, “RECEPTOR TYROSINE KINASE AGONIST, COMPOSITION FOR CELL CULTURE MEDIUM, AND […] MAINTENANCE COMPOSITION” (SEKISUI CHEMICAL CO., LTD., priority 2021, published 2024).

What was measured:
FGFR1-DIII = target: T1, FGFR1-DIII (Homo sapiens, UniProt P11362); assay: Binding activity by biolayer interference (BLI) to FGFR1-DIII; details: 1:1 binding model
T1 construct: The FGFR1 extracellular domain has DII and DIII domains; made in house; host or cells: AAVpro293T cells
T1 sequence (P11362 255-357 limits assumed): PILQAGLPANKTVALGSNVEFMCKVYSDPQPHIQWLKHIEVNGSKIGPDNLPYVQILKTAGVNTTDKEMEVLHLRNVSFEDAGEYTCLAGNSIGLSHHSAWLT
Description: (§1) The FGFR1 extracellular domain has DII and DIII domains. Each of an FGFR1 extracellular domains (hereinafter may be abbreviated as “FGFR1-DIIDIII”, “FGFR1-DII”, or “FGFR1-DIII”) was expressed using AAVpro293T cells as follows, these domains were purified, and an affinity measurement test with VHH Clone #1 was performed by a biolayer interference (BLI) method.
(§2) The binding activities of FGFR1-DIIDIII, FGFR1-DII, and FGFR1-DIII to VHH Clone #1 were measured by a biolayer interference method (hereinafter sometimes abbreviated as “BLI”). In BLI, using Octet 384 (manufactured by Fortebio), VHH Clone #1 diluted with a kinetics buffer (0.05% Tween20-containing PBS, pH 7.4) was immobilized on an Anti-Penta-HIS (HIS1K, manufactured by Fortebio) sensor chip, and bound to FGFR1-DIIDIII, FGFR1-DII, and FGFR1-DIII, which had been adjusted from 100 nM in 2-fold serial dilutions, and the dissociation rate was measured.
(§3) In the preparation for measurement, a tip of the sensor chip was immersed in 200 μL of the kinetics buffer for 10 minutes in order to hydrate the sensor chip. […]
(§4) After completion of the measurements, the measured value of a Reference (only the kinetics buffer) was subtracted from the actual measurement value, and Global Fitting was performed using a 1:1 binding model using Octet software to calculate the binding activity (FIG. 22).

FGFR4-Fc = target: T2, FGFR4-Fc (Homo sapiens, UniProt P22455); assay: SPR affinity of VHH (monomer) for FGFR4-Fc; format: binding; details: same manner as Example 5
T2 construct: Fc
T2 sequence (P22455 22-369 limits assumed): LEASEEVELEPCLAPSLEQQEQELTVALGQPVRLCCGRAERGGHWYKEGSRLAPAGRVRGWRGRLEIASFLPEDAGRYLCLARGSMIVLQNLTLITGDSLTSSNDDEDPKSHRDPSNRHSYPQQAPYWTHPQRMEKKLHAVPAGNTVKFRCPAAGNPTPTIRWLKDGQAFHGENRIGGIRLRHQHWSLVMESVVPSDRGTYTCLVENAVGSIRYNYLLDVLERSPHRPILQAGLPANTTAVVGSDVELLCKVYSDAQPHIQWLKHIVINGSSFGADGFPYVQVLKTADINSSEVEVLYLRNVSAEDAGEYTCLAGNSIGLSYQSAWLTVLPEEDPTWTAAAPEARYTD
Description: The binding activity of VHH Clone #1 or VHH Clone #2 immobilized on Series S Sensor Chip CAP (manufactured by Cytiva) with respect to FGFR1-Fc was measured using Biacore (registered trademark) T200 (manufactured by Cytiva). Measurement was performed by CAP Single-cycle Kinetics. The temperature was set to 25° C. As a running buffer, 10 mM HEPES (pH 7.4) (Cytiva) including HBS-EP+(150 mM NaCl, 0.5 mM EDTA, and 0.05% surfactant P20) was used. The measurement order for each run is as follows.
2) Measurement of binding activity: The flow rate was set to 30 μL/mL, and VHH Clone #1 or VHH Clone #2 each diluted to 1.85 nM, 5.56 nM, 16.67 nM, or 50 nM, using a running buffer, was allowed to have an association time set to 120 seconds for binding and a dissociation time set to 600 seconds for interaction.
3) Regeneration of sensor chip surface: The flow rate was set to 10 μL/mL, a solution in which Reaneration stock 1 and Regeneration stock 2 (manufactured by Cytiva) were mixed at the ratio of 3:1 was added thereto for 120 seconds to extract the immobilized VHH. Next, analysis was performed with a 1:1 binding model using Biacore T200 Evaluation (software version 2.0, manufactured by Cytiva), and the binding activity was calculated.
The binding activity of VHH Clone #1 to FGFR2-Fc, FGFR3-Fc, or FGFR4-Fc was measured in the same manner as in Example 5.

FGFR1-DIIDIII = assay: Binding activity by biolayer interference (BLI) to FGFR1-DIIDIII; design: species or system human; details: 1:1 binding model
Description: as §1, §2, §3, §4

Chain of FGFR1-DIIDIII (P11362 158-357 limits assumed): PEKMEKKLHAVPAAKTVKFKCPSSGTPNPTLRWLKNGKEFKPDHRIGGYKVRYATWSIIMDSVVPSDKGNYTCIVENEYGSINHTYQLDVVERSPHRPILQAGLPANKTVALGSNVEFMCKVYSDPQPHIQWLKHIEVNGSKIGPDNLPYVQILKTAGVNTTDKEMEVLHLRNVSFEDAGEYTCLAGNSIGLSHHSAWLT

B1: VHH Clone #1: alpaca-derived VHH single-domain antibody (monomer) binding FGFR1, amino acid sequence SEQ ID NO: 17 (protein)
VHH: QLQLVESGGGSVQAGGSLRLSCAASRSLSRFNVWTWYRQAPVKQRELVASITKSGDTNYAESVKGRFIISRDDDKNTVYLQMNNLKSEDTGIYYCAGSYYSGSYLYPSPGGFSVWGQGTQVTVSS
modifications: VHH_Clone_#1
B1 was tested, and the “Koff” value (FGFR1-DIII) was 0.000351 s⁻¹, the “Kon” value (FGFR1-DIII) was 298000 M/s and the ka (FGFR4-Fc) was 2.37e+06 M⁻¹ s⁻¹. For the same molecule, the kd (FGFR4-Fc) was 0.0527 s⁻¹, the “Koff” value (FGFR1-DIIDIII) was 0.000141 s⁻¹ and the “Kon” value (FGFR1-DIIDIII) was 289000 M/s.
